In data set [1] the target is Arabidopsis RADA recombinant protein (His-tagged, WT) (Arabidopsis thaliana). The experiment in a line: dynamic light scattering; protein fraction of gel filtration peak 2 (the smaller oligomer). In general terms: In gel filtration, larger molecules generally elute earlier.
The target in data set [2] is T1, RADA (Arabidopsis thaliana, UniProt F4K8X8 49-627).
T1 sequence: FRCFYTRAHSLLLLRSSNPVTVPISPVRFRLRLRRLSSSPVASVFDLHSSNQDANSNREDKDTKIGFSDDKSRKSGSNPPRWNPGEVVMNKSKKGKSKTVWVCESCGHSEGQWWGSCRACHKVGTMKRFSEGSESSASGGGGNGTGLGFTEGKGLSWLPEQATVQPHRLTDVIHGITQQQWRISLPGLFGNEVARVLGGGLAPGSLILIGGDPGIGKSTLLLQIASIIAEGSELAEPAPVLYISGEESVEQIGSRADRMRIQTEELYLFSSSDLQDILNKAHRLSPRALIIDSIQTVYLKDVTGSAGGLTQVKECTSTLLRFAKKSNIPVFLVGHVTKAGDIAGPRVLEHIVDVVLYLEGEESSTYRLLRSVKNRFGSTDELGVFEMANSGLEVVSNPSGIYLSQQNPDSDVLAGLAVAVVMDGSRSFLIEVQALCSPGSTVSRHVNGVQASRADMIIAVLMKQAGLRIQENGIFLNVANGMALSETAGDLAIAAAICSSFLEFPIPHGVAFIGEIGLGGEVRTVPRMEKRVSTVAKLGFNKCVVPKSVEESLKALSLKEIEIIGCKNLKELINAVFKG
As to the kind of experiment: EMSA; probe and homologous competitor; 20 mM Tris-HCl pH 7.5, 50 mM KCl, 5 mM MgCl2, 0.5 mM EDTA, 10% glycerol, 1 mM DTT, protease inhibitors; 20 C, 20 min; 8 or 4.5% PAGE in TBE at 4 C. Particulars: protein: recombinant; tags: N-terminal His (pET28a); chain copies: 6; label: 5'-32P as probe; single strand.

The target in data set [3] is T1, RADA. As to the kind of experiment: competition; competes as efficiently as homologous 30-mer; 20 mM Tris-HCl pH 7.5, 50 mM KCl, 5 mM MgCl2, 0.5 mM EDTA, 10% glycerol, 1 mM DTT, protease inhibitors; 20 C, 20 min; 8 or 4.5% PAGE in TBE at 4 C. Particulars: protein: recombinant; tags: N-terminal His (pET28a); chain copies: 6; single strand.
In data set [4] the target is T1, RADA. As to the kind of experiment: EMSA; 20 mM Tris-HCl pH 7.5, 50 mM KCl, 5 mM MgCl2, 0.5 mM EDTA, 10% glycerol, 1 mM DTT, protease inhibitors; 20 C, 20 min; 8 or 4.5% PAGE in TBE at 4 C. To be noted: protein: recombinant; tags: N-terminal His (pET28a); chain copies: 6; label: 5'-32P; single strand.

A word on the stoichiometry N: it is a count of units in the complex or per binding partner.

For the molecule “Arabidopsis RADA recombinant protein (His-tagged, WT) (enzyme)”, the stoichiometry N in data set [1] turned out to be 6.
Take AGTCAGTCAGTCAGTCAGTCAGTCAGTCAG (ssDNA) [EMSA 30-mer 7x[AGTC]AG]: in data set [2], the binding result is given as “binds”.
Consider TTTTTTTTTTTTTTTTTTTTTTTTTTTTTT (ssDNA) [poly-dT 30-mer], for which the binding result in data set [3] was “binds”.

B1: EMSA ssDNA (ssDNA)
DNA: GACGCTGCCGAATTCTACCAGTGCCTTGCTAGGACATCTTTGCCCACCTGCAGGTTCACCC
In the case of B1, the binding result in data set [4] is “binds”.

The values above are taken from paper PMC9129000, “RADA-dependent branch migration has a predominant role in plant mitochondria and its defect leads to mtDNA instability and cell cycle arrest”.
